Read-outs that look alike come from different tables or passages of the source.
Tests used:
[1] = target: T1, CALRins5 (mutant calreticulin, 5 base pair insertion, Type 2) expressed with MPL on engineered cancer cells (UniProt P27797 18-417); assay: flow cytometry on ELF-153 MPL CALRins5 cells, 1 h at 37 C, AF647 secondary antibody, Geometric Mean
T1 construct: whole, on cells; On the cell surface in complex with MPL; also called OCI-M2 MPL CALRins5
T1 sequence (looked up): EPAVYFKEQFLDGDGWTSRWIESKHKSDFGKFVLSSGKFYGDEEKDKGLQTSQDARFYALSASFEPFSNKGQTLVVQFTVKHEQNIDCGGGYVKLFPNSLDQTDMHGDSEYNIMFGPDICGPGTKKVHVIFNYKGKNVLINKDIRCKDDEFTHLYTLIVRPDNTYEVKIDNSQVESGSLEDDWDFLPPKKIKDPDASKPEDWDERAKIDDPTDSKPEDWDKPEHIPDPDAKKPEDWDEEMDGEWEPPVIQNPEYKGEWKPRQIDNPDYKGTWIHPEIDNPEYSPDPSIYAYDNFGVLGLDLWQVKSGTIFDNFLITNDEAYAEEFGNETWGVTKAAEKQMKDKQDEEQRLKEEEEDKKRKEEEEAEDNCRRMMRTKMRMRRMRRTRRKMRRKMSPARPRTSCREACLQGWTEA
Protocol: FIGS. 21A-21F depict binding of different CALRmutxCD3 bispecific antibodies to CALRmut-negative or CALRmut-positive cells. Flow cytometry was used to evaluate CALRmutxCD3 binding to CALRmut-negative and CALRmut-positive cancer cells in vitro. CALRmutxCD3 antibodies were tested on a panel of cell lines, engineered to express MPL and CALRmut, after 1 hour 37° C. incubation, with subsequent incubation with secondary AF647-labeled antibody. Geometric mean fluorescence intensity of AF647 was measured to determine antibody binding.

[2] = target: T2, Avi/his-CalR-Ins5 (CALRW28.004) (human, UniProt P27797 18-417, limits assumed); assay: SPR, forced degradation: Release
T2 construct: also called human CALRins5
T2 sequence (looked up): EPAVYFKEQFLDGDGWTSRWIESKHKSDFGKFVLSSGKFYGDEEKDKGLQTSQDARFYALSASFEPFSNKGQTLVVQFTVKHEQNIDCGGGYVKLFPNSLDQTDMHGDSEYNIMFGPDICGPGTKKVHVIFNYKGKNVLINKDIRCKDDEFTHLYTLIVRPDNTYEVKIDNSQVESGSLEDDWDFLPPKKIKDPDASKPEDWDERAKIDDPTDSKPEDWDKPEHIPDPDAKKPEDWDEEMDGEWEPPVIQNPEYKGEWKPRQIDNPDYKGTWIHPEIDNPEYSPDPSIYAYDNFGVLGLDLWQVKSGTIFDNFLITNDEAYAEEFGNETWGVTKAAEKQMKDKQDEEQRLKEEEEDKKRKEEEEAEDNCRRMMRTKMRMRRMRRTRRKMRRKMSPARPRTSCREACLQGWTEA

[3] = target: T3, Flag/6xhis-CALRdel52 (CALRW12.007) (human, UniProt P27797 18-417); assay: SPR, forced degradation: Release
T3 construct: also called human CALRdel52
T3 sequence (looked up): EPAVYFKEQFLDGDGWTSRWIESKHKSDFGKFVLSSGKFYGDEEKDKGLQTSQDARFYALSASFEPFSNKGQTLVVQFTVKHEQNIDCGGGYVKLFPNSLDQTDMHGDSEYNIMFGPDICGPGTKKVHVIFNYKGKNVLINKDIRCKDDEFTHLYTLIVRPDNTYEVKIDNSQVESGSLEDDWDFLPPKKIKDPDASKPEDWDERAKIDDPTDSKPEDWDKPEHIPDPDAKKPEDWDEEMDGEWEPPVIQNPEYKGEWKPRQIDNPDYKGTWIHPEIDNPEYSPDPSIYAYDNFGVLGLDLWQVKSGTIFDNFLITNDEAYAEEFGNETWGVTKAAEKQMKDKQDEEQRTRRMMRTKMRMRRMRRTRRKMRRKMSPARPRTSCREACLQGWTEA

[4] = target: T4, CD3EG-HSA-6xHis (CD3W220.002) (human, UniProt P07766 22-118; P09693 23-103); assay: SPR, forced degradation: Release
T4 construct: also called human CD3; not shown: human serum albumin (HSA); 6xHis tag
T4 sequence (P07766 other isoform, or with tags, fused parts or gaps): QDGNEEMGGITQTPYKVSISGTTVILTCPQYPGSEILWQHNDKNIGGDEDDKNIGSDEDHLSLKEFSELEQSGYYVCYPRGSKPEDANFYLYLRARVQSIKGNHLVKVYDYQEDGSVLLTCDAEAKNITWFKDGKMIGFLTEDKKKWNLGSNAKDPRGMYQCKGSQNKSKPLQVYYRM

[5] = target: T1, CALRins5 (mutant calreticulin, 5 base …); assay: flow cytometry on ELF-153 MPL CALRins5 cells, 1 h at 37 C, AF647 secondary antibody, Geometric Mean; remark: listed apart in the source
Protocol: FIGS. 4A-4F depict graphs of CALRmutxCD3 bispecific antibody C3CRB73 binding to cells CALRmut-negative or CALRmut-positive. Flow cytometry was used to evaluate C3CRB73 binding to CALRmut-negative and CALRmut-positive cancer cells in vitro. C3CRB73 and NullxCD3 control were tested on a panel of cell lines, engineered to express MPL and CALRmut, after 1 hour 37° C. incubation, with subsequent incubation with secondary AF647-labeled antibody. Geometric mean fluorescence intensity of AF647 was measured to determine antibody binding. […] Abbreviations: CALR, calreticulin; CALRmut, mutant calreticulin; CD, cluster of differentiation; del, deletion; ins, insertion; MPL, thrombopoietin receptor; spFv, stapled single chain fragment variable; wt, wild type.

[6] = target: T1, CALRins5 (mutant calreticulin, 5 base …); assay: cell-based or functional assay
[7] = target: T5, CALRdel52 (mutant calreticulin, 52 base pair deletion, Type 1) expressed with MPL on engineered cancer cells (UniProt P27797 18-417); assay: cell-based or functional assay
T5 sequence (looked up): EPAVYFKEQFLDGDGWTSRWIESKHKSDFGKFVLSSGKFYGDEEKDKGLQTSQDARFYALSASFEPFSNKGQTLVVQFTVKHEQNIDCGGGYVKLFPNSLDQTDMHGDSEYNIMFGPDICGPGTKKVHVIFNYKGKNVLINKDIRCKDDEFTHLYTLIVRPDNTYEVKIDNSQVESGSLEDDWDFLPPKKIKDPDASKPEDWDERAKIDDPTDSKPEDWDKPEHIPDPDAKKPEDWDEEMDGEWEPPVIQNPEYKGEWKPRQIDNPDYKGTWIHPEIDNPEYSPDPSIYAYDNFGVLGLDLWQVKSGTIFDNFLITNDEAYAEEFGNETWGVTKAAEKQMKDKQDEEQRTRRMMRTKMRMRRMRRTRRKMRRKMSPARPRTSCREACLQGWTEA

[8] = target: T2, Avi/his-CalR-Ins5 (CALRW28.004); assay: SPR, forced degradation: Thermal
[9] = target: T3, Flag/6xhis-CALRdel52 (CALRW12.007); assay: SPR, forced degradation: Thermal
[10] = target: T4, CD3EG-HSA-6xHis (CD3W220.002); assay: SPR, forced degradation: Thermal
[11] = target: T2, Avi/his-CalR-Ins5 (CALRW28.004); assay: SPR, forced degradation: Physiological
[12] = target: T3, Flag/6xhis-CALRdel52 (CALRW12.007); assay: SPR, forced degradation: Physiological
[13] = target: T4, CD3EG-HSA-6xHis (CD3W220.002); assay: SPR, forced degradation: Physiological
human FcRn = target: T6, human FcRn (human, UniProt P55899 24-297; P61769 21-119, limits assumed); assay: FcRn binding, method not stated
T6 construct: Beta-2-microglobulin is not mentioned
T6 sequence (P55899 24-297 limits assumed, chain 1 of 2): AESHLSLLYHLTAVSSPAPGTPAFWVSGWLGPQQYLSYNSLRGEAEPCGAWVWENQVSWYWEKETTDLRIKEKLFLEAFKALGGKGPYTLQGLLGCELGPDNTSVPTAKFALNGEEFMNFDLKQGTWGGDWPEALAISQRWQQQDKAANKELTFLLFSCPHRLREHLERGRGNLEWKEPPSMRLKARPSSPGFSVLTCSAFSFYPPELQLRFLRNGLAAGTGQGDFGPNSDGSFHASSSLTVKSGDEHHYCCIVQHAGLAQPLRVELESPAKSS
T6 sequence (P61769 21-119 limits assumed, chain 2 of 2): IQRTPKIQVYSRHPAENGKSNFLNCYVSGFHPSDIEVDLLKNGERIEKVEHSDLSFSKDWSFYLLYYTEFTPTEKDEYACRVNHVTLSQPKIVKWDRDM

B1: C3CRB73 CALRmut x CD3 bispecific antibody (bispecific antibody, human IgG1, kappa, L234A L235A)
heavy: EVQLLESGGGLVQPGGSLRLSCAVSGIDLSNNAISWVRQAPGKGLEYVGVIGNTGDTYYADSAKGRFTISRDSSKTTLYLQMNSLRAEDTAVYFCVRGPPSYSSSVKNIWGQGTLVTVSSASTKGPSVFPLAPSSKSTSGGTAALGCLVKDYFPEPVTVSWNSGALTSGVHTFPAVLQSSGLYSLSSVVTVPSSSLGTQTYICNVNHKPSNTKVDKKVEPKSCDKTHTCPPCPAPEAAGGPSVFLFPPKPKDTLMISRTPEVTCVVVSVSHEDPEVKFNWYVDGVEVHNAKTKPREEQYNSTYRVVSVLTVLHQDWLNGKEYKCKVSNKALPAPIEKTISKAKGQPREPQVYTLPPSREEMTKNQVSLSCAVKGFYPSDIAVEWESNGQPENNYKTTPPVLDSDGSFFLVSKLTVDKSRWQQGNVFSCSVMHEALHNRFTQKSLSLSPGK
light: DIQMTQSPSSVSASVGDRVTITCQSSQSVYNNNWLSWLQQKPGKAPKRLIYDASKLESGVPSRFSGSGSGTDFTLTISSVQPEDAATYYCAGGFTGNVYTFGGGTKVEIKRTVAAPSVFIFPPSDEQLKSGTASVVCLLNNFYPREAKVQWKVDNALQSGNSQESVTEQDSKDSTYSLSSTLTLSKADYEKHKVYACEVTHQGLSSPVTKSFNRGEC
scFv: DIQMTQSPSSLSASVGDRVTITCRARQSIGTAIHWYQQKPGCAPKLLIKYASESISGVPSRFSGSGSGTDFTLTISSLQPEDFATYYCQQSGSWPYTFGQGTKLEIKGGGSGGSGGCPPCGGSGGEVQLVESGGGLVKPGGSLRLSCAASGFTFSRYNMNWVRQAPGKGLEWVSSISTSSNYIYYADSVKGRFTFSRDNAKNSLDLQMSGLRAEDTAIYYCTRGWGPFDYWGCGTLVTVSSEPKSSDKTHTCPPCPAPEAAGGPSVFLFPPKPKDTLMISRTPEVTCVVVSVSHEDPEVKFNWYVDGVEVHNAKTKPREEQYNSTYRVVSVLTVLHQDWLNGKEYKCKVSNKALPAPIEKTISKAKGQPREPQVYTLPPSREEMTKNQVSLWCLVKGFYPSDIAVEWESNGQPENNYKTTPPVLDSDGSFFLYSKLTVDKSRWQQGNVFSCSVMHEALHNHYTQKSLSLSPGK
notes: IgG1-AAS; also called JNJ-88549968; CALRB421 Fab x CD3 spFv
- EC50 (read off the curve) [1]: ~2 nM
- % Active [2]: 100%
- Kd [2]: 0.0331 nM
- % Active [3]: 100%
- Kd [3]: 0.0602 nM
- % Active [4]: 100%
- Kd [4]: 0.214 nM
- EC50 (read off the curve) [5]: ~4 nM
- cytotoxicity EC50 (nM), whole blood of CALRmut MPN patients, ELF-153 MPL CALRins5 [6]: 0.64 nM
- cytotoxicity EC50 (nM), whole blood of healthy donors, ELF-153 MPL CALRins5 [6]: 0.32 nM
- cytotoxicity EC50 (nM), whole blood of CALRmut MPN patients, ELF-153 MPL CALRdel52 [7]: 0.66 nM
- cytotoxicity EC50 (nM), whole blood of healthy donors, ELF-153 MPL CALRdel52 [7]: 0.51 nM
- % Active [8]: 94%
- Kd [8]: 0.0357 nM
- % Active [9]: 98%
- Kd [9]: 0.0664 nM
- % Active [10]: 94%
- Kd [10]: 0.225 nM
- % Active [11]: 99%
- Kd [11]: 0.0622 nM
- % Active [12]: 98%
- Kd [12]: 0.0171 nM
- % Active [13]: 96%
- Kd [13]: 0.301 nM
- Kd (human FcRn): 1900 nM

Reference: patent publication US20260125457A1 (Janssen / Centocor, published 2026)
